# Residue numbers refer to the chain shown, from its start.
# B1: NRC3_wobSeed43_DR1_A20C_o1 (dsDNA)
# DNA 1: GCCCAGACAGGTGAAAGGTCACTCAGTCTGGTACGCGCGATTGACAGCGTAGAATGAAGG
# DNA 2: CCTTCATTCTACGCTGTCAATCGCGCGTACCAGACTGAGTGACCTTTCACCTGTCTGGGC
# B2: NRC3_random_hg19_13_o1 (dsDNA)
# DNA 1: GCCACATCTGTAATCCCAGCACTTTGGGAGGCCAAGGCGATTGACAGCGTAGAATGAAGG
# DNA 2: CCTTCATTCTACGCTGTCAATCGCCTTGGCCTCCCAAAGTGCTGGGATTACAGATGTGGC
# B3: NRC3_wobSeed73_DR3_T8A_o1 (dsDNA)
# DNA 1: GCCAAACAAGGTCACAGAGGTCAAAGTCCGTGCGTAGCGATTGACAGCGTAGAATGAAGG
# DNA 2: CCTTCATTCTACGCTGTCAATCGCTACGCACGGACTTTGACCTCTGTGACCTTGTTTGGC
# B4: NRC3_wobSeed30_DR1_C12T_o1 (dsDNA)
# DNA 1: GCACTAGCAGGTCAAGGGTCACTCAAGATTAGTCCGGCGATTGACAGCGTAGAATGAAGG
# DNA 2: CCTTCATTCTACGCTGTCAATCGCCGGACTAATCTTGAGTGACCCTTGACCTGCTAGTGC
# B5: NRC3_wobSeed97_DR4_T8A_o1 (dsDNA)
# DNA 1: GCCAAACAAGGTCACGAAAGGTCAAAGTCGAATGACGCGATTGACAGCGTAGAATGAAGG
# DNA 2: CCTTCATTCTACGCTGTCAATCGCGTCATTCGACTTTGACCTTTCGTGACCTTGTTTGGC
# B6: NRC3_wobSeed97_DR4_T8G_o1 (dsDNA)
# DNA 1: B5 DNA 1 with A8G
# DNA 2: B5 DNA 2 with T53C
# B7: NRC3_wobSeed27_DR1_A12G_o1 (dsDNA)
# DNA 1: GCACTCGGAGGGCAAAGGTCAGAGCTACGCCAGTGAGCGATTGACAGCGTAGAATGAAGG
# DNA 2: CCTTCATTCTACGCTGTCAATCGCTCACTGGCGTAGCTCTGACCTTTGCCCTCCGAGTGC
# B8: NRC3_wobSeed121_DR5_C30T_o1 (dsDNA)
# DNA 1: GCCAAACTAGGTCACCGGAAGGTCAAAGTTCGCATGGCGATTGACAGCGTAGAATGAAGG
# DNA 2: CCTTCATTCTACGCTGTCAATCGCCATGCGAACTTTGACCTTCCGGTGACCTAGTTTGGC
# B9: NRC3_wobSeed42_DR1_C19G_o1 (dsDNA)
# DNA 1: GCTATACAGGGTCAAAGGGCAGAGTACGAATGTCGAGCGATTGACAGCGTAGAATGAAGG
# DNA 2: CCTTCATTCTACGCTGTCAATCGCTCGACATTCGTACTCTGCCCTTTGACCCTGTATAGC
# Biological target: RXRa (Homo sapiens, UniProt P19793)
# Sequence (P19793 whole entry): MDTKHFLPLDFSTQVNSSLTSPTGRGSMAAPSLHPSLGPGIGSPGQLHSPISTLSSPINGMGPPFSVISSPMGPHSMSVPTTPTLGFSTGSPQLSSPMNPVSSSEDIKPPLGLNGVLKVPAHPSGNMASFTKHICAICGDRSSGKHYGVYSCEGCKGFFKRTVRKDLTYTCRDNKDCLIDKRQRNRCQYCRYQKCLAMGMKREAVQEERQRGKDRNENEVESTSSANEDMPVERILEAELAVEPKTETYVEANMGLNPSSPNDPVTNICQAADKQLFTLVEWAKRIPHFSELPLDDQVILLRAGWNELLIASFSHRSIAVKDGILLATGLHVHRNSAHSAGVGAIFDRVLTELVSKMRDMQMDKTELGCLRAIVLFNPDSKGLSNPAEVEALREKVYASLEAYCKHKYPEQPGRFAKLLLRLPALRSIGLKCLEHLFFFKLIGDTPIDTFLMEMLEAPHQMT
# Assay: no ligand; PBM; 180 nM; PBS pH 7.4, 2% milk, 0.02% Triton X-100, 1 mM DTT, BSA, 0.4 mg/ml salmon testes DNA
# Conditions: tags: His cleaved; chain copies: 2; label: surface-attached array probe
row,Binder,binding signal
1,B1,8.23 PBM z-score against 500 random probes
2,B2,0.22 PBM z-score against 500 random probes
3,B3,10.1 PBM z-score against 500 random probes
4,B4,8.53 PBM z-score against 500 random probes
5,B5,9.58 PBM z-score against 500 random probes
6,B6,9.84 PBM z-score against 500 random probes
7,B7,8.52 PBM z-score against 500 random probes
8,B8,8.07 PBM z-score against 500 random probes
9,B9,8.22 PBM z-score against 500 random probes

# Biological target: PPARg:RXRa (Homo sapiens, UniProt P37231;P19793 full;full)
# Sequence (P37231 29-505, chain 1 of 2): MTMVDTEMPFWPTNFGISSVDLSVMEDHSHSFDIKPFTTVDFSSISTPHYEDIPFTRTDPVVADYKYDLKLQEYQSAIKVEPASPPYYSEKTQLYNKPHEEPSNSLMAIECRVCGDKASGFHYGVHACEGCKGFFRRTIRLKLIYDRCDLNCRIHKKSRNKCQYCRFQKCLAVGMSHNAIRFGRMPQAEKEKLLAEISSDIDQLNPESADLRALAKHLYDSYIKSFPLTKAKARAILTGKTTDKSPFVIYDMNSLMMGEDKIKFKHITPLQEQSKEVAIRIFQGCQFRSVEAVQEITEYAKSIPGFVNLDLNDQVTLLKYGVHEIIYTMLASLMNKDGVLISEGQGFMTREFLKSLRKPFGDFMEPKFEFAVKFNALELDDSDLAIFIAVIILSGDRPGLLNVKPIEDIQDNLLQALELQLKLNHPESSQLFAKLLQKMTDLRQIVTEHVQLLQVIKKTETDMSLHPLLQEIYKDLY
# Sequence (P19793 whole entry, chain 2 of 2): as the sequence (P19793 whole entry) above
# Assay: no ligand; PBM; 180 nM : 90 nM RXRa; PBS pH 7.4, 2% milk, 0.02% Triton X-100, 1 mM DTT, BSA, 0.4 mg/ml salmon testes DNA
# Conditions: tags: His kept;His cleaved; copies: 1;1; label: surface-attached array probe
row,Binder,binding signal
1,B1,10.4 PBM z-score against 500 random probes
2,B2,0.3 PBM z-score against 500 random probes
3,B4,11.2 PBM z-score against 500 random probes
4,B7,9.6 PBM z-score against 500 random probes
5,B8,10.6 PBM z-score against 500 random probes
6,B9,9.96 PBM z-score against 500 random probes

# Biological target: RARb:RXRa (Homo sapiens, UniProt P10826;P19793 full;full)
# Sequence (P10826 whole entry, chain 1 of 2): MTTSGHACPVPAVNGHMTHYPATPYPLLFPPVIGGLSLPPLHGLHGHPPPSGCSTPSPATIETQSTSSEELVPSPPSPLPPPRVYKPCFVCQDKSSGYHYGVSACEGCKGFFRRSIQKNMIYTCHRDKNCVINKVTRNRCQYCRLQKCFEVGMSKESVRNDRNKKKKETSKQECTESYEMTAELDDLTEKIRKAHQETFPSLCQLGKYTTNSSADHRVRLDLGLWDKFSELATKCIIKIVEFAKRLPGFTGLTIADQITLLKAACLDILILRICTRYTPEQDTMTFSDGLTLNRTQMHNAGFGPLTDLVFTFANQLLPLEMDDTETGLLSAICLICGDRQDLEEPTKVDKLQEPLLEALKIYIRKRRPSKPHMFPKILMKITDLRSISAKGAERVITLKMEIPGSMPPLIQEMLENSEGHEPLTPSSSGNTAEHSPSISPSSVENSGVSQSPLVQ
# Sequence (P19793 whole entry, chain 2 of 2): as the sequence (P19793 whole entry) above
# Assay: no ligand; PBM; 270 nM : 90 nM RXRa; PBS pH 7.4, 2% milk, 0.02% Triton X-100, 1 mM DTT, BSA, 0.4 mg/ml salmon testes DNA
# Conditions: tags: His kept;His cleaved; copies: 1;1; label: surface-attached array probe
# How it was run: (§1)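 The probes on custom Agilent 4×180K protein-binding microarrays were double-stranded, with 34-nt variable regions bearing direct-repeat seeds, single-nucleotide variants, half-site ablations and random human genomic background sequences. Incubation lasted 1 h with ligand-free nuclear receptor dimers in PBS pH 7.4, 2% milk, 0.02% Triton X-100, 1 mM DTT, 0.2 mg/mL BSA and 0.4 mg/ml salmon testes DNA. Antibodies against each partner (one per run) detected bound dimers, and fluorescence scans were regression-normalized. Binding z-scores take the random background probes as reference.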
row,Binder,binding signal
1,B3,6.08 PBM z-score against 500 random probes
2,B5,6.14 PBM z-score against 500 random probes
3,B6,6.03 PBM z-score against 500 random probes

# Biological target: VDR:RXRa (Homo sapiens, UniProt P11473;P19793 full;full)
# Sequence (P11473 whole entry, chain 1 of 2): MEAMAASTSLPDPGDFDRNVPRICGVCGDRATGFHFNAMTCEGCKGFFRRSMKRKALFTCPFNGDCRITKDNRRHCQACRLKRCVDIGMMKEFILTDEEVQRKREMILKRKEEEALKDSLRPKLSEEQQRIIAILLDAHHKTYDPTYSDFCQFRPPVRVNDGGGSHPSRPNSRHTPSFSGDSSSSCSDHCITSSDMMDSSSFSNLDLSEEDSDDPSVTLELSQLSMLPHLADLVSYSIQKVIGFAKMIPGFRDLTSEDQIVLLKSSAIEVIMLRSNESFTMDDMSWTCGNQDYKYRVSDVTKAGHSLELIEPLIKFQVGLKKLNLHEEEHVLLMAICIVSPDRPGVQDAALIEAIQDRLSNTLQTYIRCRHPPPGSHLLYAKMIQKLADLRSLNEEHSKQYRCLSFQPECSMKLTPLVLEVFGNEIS
# Sequence (P19793 whole entry, chain 2 of 2): as the sequence (P19793 whole entry) above
# Assay: as above
# Conditions: tags: His kept;His cleaved; copies: 1;1; label: surface-attached array probe
# How it was run: as §1
row,Binder,binding signal
1,B3,8.7 PBM z-score against 500 random probes
2,B5,7.94 PBM z-score against 500 random probes
3,B6,7.51 PBM z-score against 500 random probes

# Biological target: LXRa:RXRa (Homo sapiens, UniProt Q13133;P19793 full;full)
# Sequence (Q13133 whole entry, chain 1 of 2): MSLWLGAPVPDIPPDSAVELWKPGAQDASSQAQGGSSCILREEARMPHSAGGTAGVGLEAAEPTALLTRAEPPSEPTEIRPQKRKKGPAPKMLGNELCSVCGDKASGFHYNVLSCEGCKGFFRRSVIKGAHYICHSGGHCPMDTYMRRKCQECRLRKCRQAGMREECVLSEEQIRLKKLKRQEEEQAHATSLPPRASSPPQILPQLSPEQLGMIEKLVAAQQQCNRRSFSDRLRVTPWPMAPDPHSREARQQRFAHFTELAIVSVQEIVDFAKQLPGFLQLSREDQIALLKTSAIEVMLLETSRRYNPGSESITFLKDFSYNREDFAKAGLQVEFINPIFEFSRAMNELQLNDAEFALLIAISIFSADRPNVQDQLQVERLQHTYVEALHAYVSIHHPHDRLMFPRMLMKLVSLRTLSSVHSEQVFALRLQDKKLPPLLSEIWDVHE
# Sequence (P19793 whole entry, chain 2 of 2): as the sequence (P19793 whole entry) above
# Assay: as above
# Conditions: tags: His kept;His cleaved; copies: 1;1; label: surface-attached array probe
# How it was run: as §1
row,Binder,binding signal
1,B3,7.79 PBM z-score against 500 random probes
2,B5,8.85 PBM z-score against 500 random probes
3,B6,8.87 PBM z-score against 500 random probes

# Biological target: PPARa:RXRa (Homo sapiens, UniProt Q07869;P19793 full;full)
# Sequence (Q07869 whole entry, chain 1 of 2): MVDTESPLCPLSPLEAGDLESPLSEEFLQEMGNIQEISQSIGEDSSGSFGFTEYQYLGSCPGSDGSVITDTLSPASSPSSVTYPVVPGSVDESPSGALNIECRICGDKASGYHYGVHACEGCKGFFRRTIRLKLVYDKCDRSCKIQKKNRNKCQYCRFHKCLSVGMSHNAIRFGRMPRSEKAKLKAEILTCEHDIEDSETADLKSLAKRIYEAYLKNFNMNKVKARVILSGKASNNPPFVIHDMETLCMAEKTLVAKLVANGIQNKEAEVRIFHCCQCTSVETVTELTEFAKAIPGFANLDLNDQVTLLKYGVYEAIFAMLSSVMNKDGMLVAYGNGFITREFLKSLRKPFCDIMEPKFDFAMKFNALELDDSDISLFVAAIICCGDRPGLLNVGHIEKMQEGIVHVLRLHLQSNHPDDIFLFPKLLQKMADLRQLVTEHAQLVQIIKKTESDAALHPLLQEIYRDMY
# Sequence (P19793 whole entry, chain 2 of 2): as the sequence (P19793 whole entry) above
# Assay: as above
# Conditions: tags: GST kept;His cleaved; copies: 1;1; label: surface-attached array probe
# How it was run: as §1
row,Binder,binding signal
1,B3,6.92 PBM z-score against 500 random probes
2,B5,7 PBM z-score against 500 random probes
3,B6,6.96 PBM z-score against 500 random probes

# Biological target: LXRb:RXRa (Homo sapiens, UniProt P55055;P19793 full;full)
# Sequence (P55055 whole entry, chain 1 of 2): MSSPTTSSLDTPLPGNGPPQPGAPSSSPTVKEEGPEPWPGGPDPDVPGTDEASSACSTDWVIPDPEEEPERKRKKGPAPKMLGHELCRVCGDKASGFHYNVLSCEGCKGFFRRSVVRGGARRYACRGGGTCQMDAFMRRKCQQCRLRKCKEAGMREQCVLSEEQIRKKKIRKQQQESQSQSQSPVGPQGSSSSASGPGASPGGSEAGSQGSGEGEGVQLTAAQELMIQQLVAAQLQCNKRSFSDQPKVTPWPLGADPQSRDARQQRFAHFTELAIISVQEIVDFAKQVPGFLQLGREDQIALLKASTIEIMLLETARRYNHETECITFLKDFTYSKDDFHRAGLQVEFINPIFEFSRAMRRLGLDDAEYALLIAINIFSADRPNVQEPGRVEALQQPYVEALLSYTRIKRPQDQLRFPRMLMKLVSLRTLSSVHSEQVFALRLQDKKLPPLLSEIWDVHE
# Sequence (P19793 whole entry, chain 2 of 2): as the sequence (P19793 whole entry) above
# Assay: as above
# Conditions: tags: His kept;His cleaved; copies: 1;1; label: surface-attached array probe
# How it was run: as §1
row,Binder,binding signal
1,B3,7.37 PBM z-score against 500 random probes
2,B5,8.12 PBM z-score against 500 random probes
3,B6,7.93 PBM z-score against 500 random probes

# Biological target: FXR:RXRa (Homo sapiens, UniProt Q96RI1;P19793 full;full)
# Sequence (Q96RI1 whole entry, chain 1 of 2): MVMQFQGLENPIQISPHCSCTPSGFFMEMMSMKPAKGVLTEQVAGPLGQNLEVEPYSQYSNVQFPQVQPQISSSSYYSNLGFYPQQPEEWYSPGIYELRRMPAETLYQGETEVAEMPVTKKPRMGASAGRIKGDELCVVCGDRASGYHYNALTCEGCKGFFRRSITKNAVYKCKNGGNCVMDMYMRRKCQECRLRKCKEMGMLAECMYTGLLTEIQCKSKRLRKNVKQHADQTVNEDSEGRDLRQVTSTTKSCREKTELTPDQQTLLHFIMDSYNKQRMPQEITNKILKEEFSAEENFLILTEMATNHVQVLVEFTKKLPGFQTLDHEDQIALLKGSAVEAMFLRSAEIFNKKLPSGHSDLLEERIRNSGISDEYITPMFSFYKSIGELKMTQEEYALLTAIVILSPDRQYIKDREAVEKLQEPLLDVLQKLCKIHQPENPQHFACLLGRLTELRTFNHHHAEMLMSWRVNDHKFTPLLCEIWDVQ
# Sequence (P19793 whole entry, chain 2 of 2): as the sequence (P19793 whole entry) above
# Assay: as above
# Conditions: tags: His kept;His cleaved; copies: 1;1; label: surface-attached array probe
# How it was run: as §1
row,Binder,binding signal
1,B3,8.84 PBM z-score against 500 random probes
2,B5,8.87 PBM z-score against 500 random probes
3,B6,9.24 PBM z-score against 500 random probes

# Biological target: PXR:RXRa (Homo sapiens, UniProt O75469;P19793 full;full)
# Sequence (O75469 whole entry, chain 1 of 2): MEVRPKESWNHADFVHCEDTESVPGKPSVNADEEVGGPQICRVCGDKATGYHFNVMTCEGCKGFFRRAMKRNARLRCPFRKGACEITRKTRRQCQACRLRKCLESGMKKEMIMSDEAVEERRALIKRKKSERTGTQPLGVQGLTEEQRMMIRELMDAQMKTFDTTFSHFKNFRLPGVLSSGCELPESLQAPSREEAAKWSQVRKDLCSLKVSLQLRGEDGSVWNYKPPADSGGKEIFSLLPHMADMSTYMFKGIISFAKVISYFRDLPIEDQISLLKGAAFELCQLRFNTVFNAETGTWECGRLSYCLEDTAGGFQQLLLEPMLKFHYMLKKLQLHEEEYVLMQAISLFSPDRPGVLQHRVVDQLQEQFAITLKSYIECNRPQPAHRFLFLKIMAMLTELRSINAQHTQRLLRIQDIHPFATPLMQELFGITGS
# Sequence (P19793 whole entry, chain 2 of 2): as the sequence (P19793 whole entry) above
# Assay: as above
# Conditions: tags: His kept;His cleaved; copies: 1;1; label: surface-attached array probe
# How it was run: as §1
row,Binder,binding signal
1,B3,7.48 PBM z-score against 500 random probes
2,B5,7.87 PBM z-score against 500 random probes
3,B6,7.9 PBM z-score against 500 random probes

# Biological target: RARa:RXRa (Homo sapiens, UniProt P10276;P19793 full;full)
# Assay: as above
# Conditions: tags: His kept;His cleaved; copies: 1;1; label: surface-attached array probe
# How it was run: as §1
row,Binder,binding signal
1,B1,7.65 PBM z-score against 500 random probes
2,B2,0.01 PBM z-score against 500 random probes
3,B3,8.63 PBM z-score against 500 random probes
4,B4,8.23 PBM z-score against 500 random probes
5,B5,8.72 PBM z-score against 500 random probes
6,B6,8.33 PBM z-score against 500 random probes
7,B7,7.48 PBM z-score against 500 random probes
8,B8,8.54 PBM z-score against 500 random probes
9,B9,7.26 PBM z-score against 500 random probes

# Biological target: RARg:RXRa (Homo sapiens, UniProt P13631;P19793 full;full)
# Sequence (P13631 whole entry, chain 1 of 2): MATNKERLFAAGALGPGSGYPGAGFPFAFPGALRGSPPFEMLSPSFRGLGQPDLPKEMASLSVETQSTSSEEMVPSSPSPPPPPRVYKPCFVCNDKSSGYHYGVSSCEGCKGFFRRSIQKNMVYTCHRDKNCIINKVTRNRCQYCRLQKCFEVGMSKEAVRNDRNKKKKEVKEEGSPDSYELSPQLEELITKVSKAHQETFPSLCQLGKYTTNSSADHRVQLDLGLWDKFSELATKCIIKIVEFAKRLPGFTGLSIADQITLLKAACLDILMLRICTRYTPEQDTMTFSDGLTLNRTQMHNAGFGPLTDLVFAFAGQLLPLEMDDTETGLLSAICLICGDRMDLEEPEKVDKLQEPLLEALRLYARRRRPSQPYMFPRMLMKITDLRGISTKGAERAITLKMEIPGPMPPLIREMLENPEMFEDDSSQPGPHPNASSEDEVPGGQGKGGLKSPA
# Sequence (P19793 whole entry, chain 2 of 2): as the sequence (P19793 whole entry) above
# Assay: as above
# Conditions: tags: His kept;His cleaved; copies: 1;1; label: surface-attached array probe
# How it was run: as §1
row,Binder,binding signal
1,B3,8.47 PBM z-score against 500 random probes
2,B5,8.87 PBM z-score against 500 random probes
3,B6,8.98 PBM z-score against 500 random probes

# — PMC6555819, “Comprehensive study of nuclear receptor DNA binding provides a revised framework for understanding receptor specificity”
